Reference: paper PMC6455120 (2019)

Target: T1, MERS-CoV spike ectodomain ECD (Middle East respiratory …, UniProt K9N5Q8)
T1 chain: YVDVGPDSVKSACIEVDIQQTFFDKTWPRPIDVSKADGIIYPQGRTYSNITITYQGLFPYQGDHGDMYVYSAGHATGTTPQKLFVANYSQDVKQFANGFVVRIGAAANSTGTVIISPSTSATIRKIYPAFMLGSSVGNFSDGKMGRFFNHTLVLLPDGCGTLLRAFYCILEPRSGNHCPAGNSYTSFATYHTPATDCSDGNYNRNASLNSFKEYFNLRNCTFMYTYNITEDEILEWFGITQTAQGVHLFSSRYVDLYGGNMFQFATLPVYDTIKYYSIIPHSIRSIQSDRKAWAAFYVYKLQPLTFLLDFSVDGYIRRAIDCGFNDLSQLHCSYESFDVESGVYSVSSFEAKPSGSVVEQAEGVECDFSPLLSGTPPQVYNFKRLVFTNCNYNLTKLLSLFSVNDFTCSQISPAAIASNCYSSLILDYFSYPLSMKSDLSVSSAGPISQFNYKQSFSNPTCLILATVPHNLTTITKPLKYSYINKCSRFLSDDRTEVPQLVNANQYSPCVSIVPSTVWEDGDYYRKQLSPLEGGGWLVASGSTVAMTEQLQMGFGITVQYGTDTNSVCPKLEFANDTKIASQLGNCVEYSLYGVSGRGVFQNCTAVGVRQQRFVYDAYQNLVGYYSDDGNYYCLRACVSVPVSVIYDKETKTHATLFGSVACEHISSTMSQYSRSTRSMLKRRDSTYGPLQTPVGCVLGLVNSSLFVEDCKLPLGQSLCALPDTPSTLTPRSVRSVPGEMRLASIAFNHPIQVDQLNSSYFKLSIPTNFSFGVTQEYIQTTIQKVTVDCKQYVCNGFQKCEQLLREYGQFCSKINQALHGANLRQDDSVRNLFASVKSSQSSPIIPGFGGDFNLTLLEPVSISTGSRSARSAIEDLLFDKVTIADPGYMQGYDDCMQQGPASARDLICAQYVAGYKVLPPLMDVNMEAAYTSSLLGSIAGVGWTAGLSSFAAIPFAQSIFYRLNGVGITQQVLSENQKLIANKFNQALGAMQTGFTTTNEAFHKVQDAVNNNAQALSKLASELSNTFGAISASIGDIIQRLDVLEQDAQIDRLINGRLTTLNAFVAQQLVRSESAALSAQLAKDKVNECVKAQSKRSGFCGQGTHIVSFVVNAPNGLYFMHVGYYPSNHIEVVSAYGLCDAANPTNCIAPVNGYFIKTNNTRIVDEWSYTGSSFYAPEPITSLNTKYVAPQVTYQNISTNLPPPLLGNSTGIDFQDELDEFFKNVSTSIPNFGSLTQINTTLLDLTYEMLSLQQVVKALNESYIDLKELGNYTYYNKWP

B1: DPP4 (protein)
chain: SRKTYTLTDYLKNTYRLKLYSLRWISDHEYLYKQENNILVFNAEYGNSSVFLENSTFDEFGHSINDYSISPDGQFILLEYNYVKQWRHSYTASYDIYDLNKRQLITEERIPNNTQWVTWSPVGHKLAYVWNNDIYVKIEPNLPSYRITWTGKEDIIYNGITDWVYEEEVFSAYSALWWSPNGTFLAYAQFNDTEVPLIEYSFYSDESLQYPKTVRVPYPKAGAVNPTVKFFVVNTDSLSSVTNATSIQITAPASMLIGDHYLCDVTWATQERISLQWLRRIQNYSVMDICDYDESSGRWNCLVARQHIEMSTTGWVGRFRPSEPHFTLDGNSFYKIISNEEGYRHICYFQIDKKDCTFITKGTWEVIGIEALTSDYLYYISNEYKGMPGGRNLYKIQLSDYTKVTCLSCELNPERCQYYSVSFSKEAKYYQLRCSGPGLPLYTLHSSVNDKGLRVLEDNSALDKMLQNVQMPSKKLDFIILNETKFWYQMILPPHFDKSKKYPLLLDVYAGPCSQKADTVFRLNWATYLASTENIIVASFDGRGSGYQGDKIMHAINRRLGTFEVEDQIEAARQFSKMGFVDNKRIAIWGWSYGGYVTSMVLGSGSGVFKCGIAVAPVSRWEYYDSVYTERYMGLPTPEDNLDHYRNSTVMSRAENFKQVEYLLIHGTADDNVHFQQSAQISKALVDVGVDFQAMWYTDEDHGIASSTAHQHIYTHMSHFIKQCFSLP
Kd: 3.42 nM
